{"source": "patent US20230203190A1", "molecules": {"B1": {"name": "NPC-1C chimeric antibody (antibody, mouse IgG1, kappa, V domains shown)", "VH": "QVQLKESGPDLVAPSQSLSITCIVSGFSLSKFGVNWVRQPPGKGLEWLGVIWGDGSTSYNSGLISRLSIKENSKSQVFLKLNSLQADDTATYYCVKPGGDYWGHGTSVTVSS", "VL": "QVVLTQSPVIMSASPGEKVTMTCSASSSISYMYWYQQKPGTSPRWIYDTSKLASGVPARFSGGSGTSYSLTISNMEAGDAAYYCHQRDSYPWTFGGGTNLIKRA"}, "B2": {"name": "NPC-1 monoclonal antibody (antibody, mouse IgG1, kappa, V domains shown)", "VH": "B1 VH", "VL": "B1 VL"}}, "key": {"[1]": {"biological_target": "human colorectal and pancreatic carcinoma-associated antigens (CPAA) (human)", "test": "flow cytometry, LS174T colorectal tumor cells, control antibody"}, "[2]": {"biological_target": "human colorectal and pancreatic carcinoma-associated antigens (CPAA) (human)", "test": "flow cytometry, GEO colorectal tumor cells, control antibody"}, "[3]": {"biological_target": "human colorectal and pancreatic carcinoma-associated antigens (CPAA) (human)", "test": "flow cytometry, CFPAC-1 pancreatic tumor cells, control antibody"}, "[4]": {"biological_target": "human colorectal and pancreatic carcinoma-associated antigens (CPAA) (human)", "test": "flow cytometry, MCF-7 breast tumor cells, control antibody"}, "[5]": {"biological_target": "human colorectal and pancreatic carcinoma-associated antigens (CPAA) (human)", "test": "flow cytometry, OVCAR-3 ovarian tumor cells, control antibody"}, "[6]": {"biological_target": "human colorectal and pancreatic carcinoma-associated antigens (CPAA) (human)", "test": "flow cytometry, SW1463 colorectal tumor cells, 2 ug NPC-1C per 100,000 cells"}, "[7]": {"biological_target": "human colorectal and pancreatic carcinoma-associated antigens (CPAA) (human)", "test": "flow cytometry, CFPAC-1 pancreatic tumor cells, 2 ug NPC-1C per 100,000 cells"}, "[8]": {"biological_target": "human colorectal and pancreatic carcinoma-associated antigens (CPAA) (human)", "test": "flow cytometry, H226 squamous tumor cells (type reported as not bound), 2 ug NPC-1C per 100,000 cells"}, "[9]": {"biological_target": "human colorectal and pancreatic carcinoma-associated antigens (CPAA) (human)", "test": "flow cytometry, DU145 prostate tumor cells (type reported as not bound), 2 ug NPC-1C per 100,000 cells"}, "[10]": {"biological_target": "human colorectal and pancreatic carcinoma-associated antigens (CPAA) (human)", "test": "flow cytometry, HTB-35 squamous tumor cells (type reported as not bound), 2 ug NPC-1C per 100,000 cells"}, "[11]": {"biological_target": "human colorectal and pancreatic carcinoma-associated antigens (CPAA) (human)", "test": "flow cytometry, SW756 squamous tumor cells (type reported as not bound), 2 ug NPC-1C per 100,000 cells"}, "[12]": {"biological_target": "human colorectal and pancreatic carcinoma-associated antigens (CPAA) (human)", "test": "flow cytometry, HT-29 colorectal tumor cells, 2 ug NPC-1C per 100,000 cells"}, "[13]": {"biological_target": "human colorectal and pancreatic carcinoma-associated antigens (CPAA) (human)", "test": "flow cytometry, PC-3 prostate tumor cells (type reported as not bound), 2 ug NPC-1C per 100,000 cells"}, "[14]": {"biological_target": "human colorectal and pancreatic carcinoma-associated antigens (CPAA) (human)", "test": "flow cytometry, Panc-1 pancreatic tumor cells, 2 ug NPC-1C per 100,000 cells"}, "[15]": {"biological_target": "human colorectal and pancreatic carcinoma-associated antigens (CPAA) (human)", "test": "flow cytometry, Colo-205 colorectal tumor cells, 2 ug NPC-1C per 100,000 cells"}, "[16]": {"biological_target": "human colorectal and pancreatic carcinoma-associated antigens (CPAA) (human)", "test": "flow cytometry, SW480 colorectal tumor cells, 2 ug NPC-1C per 100,000 cells"}, "[17]": {"biological_target": "human colorectal and pancreatic carcinoma-associated antigens (CPAA) (human)", "test": "flow cytometry, H520 squamous tumor cells (type reported as not bound), 2 ug NPC-1C per 100,000 cells"}, "[18]": {"biological_target": "human colorectal and pancreatic carcinoma-associated antigens (CPAA) (human)", "test": "flow cytometry, SW1116 colorectal tumor cells, 2 ug NPC-1C per 100,000 cells"}, "[19]": {"biological_target": "human colorectal and pancreatic carcinoma-associated antigens (CPAA) (human)", "test": "flow cytometry, AsPC-1 pancreatic tumor cells, 2 ug NPC-1C per 100,000 cells"}, "[20]": {"biological_target": "human colorectal and pancreatic carcinoma-associated antigens (CPAA) (human)", "test": "flow cytometry, SW620 colorectal tumor cells, 2 ug NPC-1C per 100,000 cells"}, "[21]": {"biological_target": "human colorectal and pancreatic carcinoma-associated antigens (CPAA) (human)", "test": "flow cytometry, LS174T colorectal tumor cells, 2 ug NPC-1C per 100,000 cells"}, "[22]": {"biological_target": "human colorectal and pancreatic carcinoma-associated antigens (CPAA) (human)", "test": "flow cytometry, LS174T colorectal tumor cells, 2.5 ug NPC-1 per 100,000 cells"}, "[23]": {"biological_target": "human colorectal and pancreatic carcinoma-associated antigens (CPAA) (human)", "test": "flow cytometry, OVCAR-3 ovarian tumor cells (line reported as not bound), 2.5 ug NPC-1 per 100,000 cells"}, "[24]": {"biological_target": "human colorectal and pancreatic carcinoma-associated antigens (CPAA) (human)", "test": "flow cytometry, CFPAC-1 pancreatic tumor cells, 2.5 ug NPC-1 per 100,000 cells"}, "[25]": {"biological_target": "human colorectal and pancreatic carcinoma-associated antigens (CPAA) (human)", "test": "flow cytometry, GEO colorectal tumor cells, 2.5 ug NPC-1 per 100,000 cells"}, "[26]": {"biological_target": "human colorectal and pancreatic carcinoma-associated antigens (CPAA) (human)", "test": "flow cytometry, MCF-7 breast tumor cells (line reported as not bound), 2.5 ug NPC-1 per 100,000 cells"}}, "note": "Where “and” joins values, the source holds several entries; their conditions need not be identical. Equal values may be shown once."}
{"molecule": "Isotype Control (antibody)", "values": [{"measurement": "% Cell Staining", "setting": "[1]", "result": 0.93, "unit": "%"}, {"measurement": "% Cell Staining", "setting": "[2]", "result": 0.78, "unit": "%"}, {"measurement": "% Cell Staining", "setting": "[3]", "result": 0.44, "unit": "%"}, {"measurement": "% Cell Staining", "setting": "[4]", "result": 0.94, "unit": "%"}, {"measurement": "% Cell Staining", "setting": "[5]", "result": 0.19, "unit": "%"}]}
{"molecule": "B1", "values": [{"measurement": "% Cell Staining", "setting": "[6]", "result": "3.72% and 4.29%"}, {"measurement": "mfi (mean fluorescence intensity)", "setting": "[6]", "result": "410 and 399"}, {"measurement": "% Cell Staining", "setting": "[7]", "result": "11.2% and 10.6%"}, {"measurement": "mfi (mean fluorescence intensity)", "setting": "[7]", "result": "16 and 15"}, {"measurement": "% Cell Staining", "setting": "[8]", "result": "0.49% and 0.4%"}, {"measurement": "mfi (mean fluorescence intensity)", "setting": "[8]", "result": 32}, {"measurement": "% Cell Staining", "setting": "[9]", "result": "0.24% and 0.14%"}, {"measurement": "% Cell Staining", "setting": "[10]", "result": "4.83% and 3.85%"}, {"measurement": "mfi (mean fluorescence intensity)", "setting": "[10]", "result": "97 and 123"}, {"measurement": "% Cell Staining", "setting": "[11]", "result": "0.75% and 2.14%"}, {"measurement": "mfi (mean fluorescence intensity)", "setting": "[11]", "result": "186 and 178"}, {"measurement": "% Cell Staining", "setting": "[12]", "result": "1.3% and 1.09%"}, {"measurement": "mfi (mean fluorescence intensity)", "setting": "[12]", "result": "55 and 34"}, {"measurement": "% Cell Staining", "setting": "[13]", "result": "1.34% and 1.52%"}, {"measurement": "mfi (mean fluorescence intensity)", "setting": "[13]", "result": "17 and 28"}, {"measurement": "% Cell Staining", "setting": "[14]", "result": "0.75% and 0.41%"}, {"measurement": "mfi (mean fluorescence intensity)", "setting": "[14]", "result": "69 and 31"}, {"measurement": "% Cell Staining", "setting": "[15]", "result": "2.26% and 1.44%"}, {"measurement": "mfi (mean fluorescence intensity)", "setting": "[15]", "result": "154 and 67"}, {"measurement": "% Cell Staining", "setting": "[16]", "result": "1.41% and 1.34%"}, {"measurement": "mfi (mean fluorescence intensity)", "setting": "[16]", "result": "44 and 64"}, {"measurement": "% Cell Staining", "setting": "[17]", "result": "1.66% and 0.93%"}, {"measurement": "mfi (mean fluorescence intensity)", "setting": "[17]", "result": "129 and 173"}, {"measurement": "% Cell Staining", "setting": "[18]", "result": "1.12% and 2.37%"}, {"measurement": "mfi (mean fluorescence intensity)", "setting": "[18]", "result": "97 and 174"}, {"measurement": "% Cell Staining", "setting": "[19]", "result": "0.43% and 0.35%"}, {"measurement": "mfi (mean fluorescence intensity)", "setting": "[19]", "result": "33 and 34"}, {"measurement": "% Cell Staining", "setting": "[20]", "result": "0.24% and 0.85%"}, {"measurement": "mfi (mean fluorescence intensity)", "setting": "[20]", "result": "184 and 74"}, {"measurement": "% Cell Staining", "setting": "[21]", "result": "11.6% and 11.2%"}, {"measurement": "mfi (mean fluorescence intensity)", "setting": "[21]", "result": "43 and 47"}]}
{"molecule": "B2", "values": [{"measurement": "% Cell Staining", "setting": "[22]", "result": 57, "unit": "%"}, {"measurement": "% Cell Staining", "setting": "[23]", "result": 0.19, "unit": "%"}, {"measurement": "% Cell Staining", "setting": "[24]", "result": 54.6, "unit": "%"}, {"measurement": "% Cell Staining", "setting": "[25]", "result": 86.9, "unit": "%"}, {"measurement": "% Cell Staining", "setting": "[26]", "result": 0.19, "unit": "%"}]}
